Source: patent US11612667B2, “Enhanced in vivo targeting of radiolabelled peptides with the means of enzyme inhibitors” (Advanced Accelerator Applications USA, Inc., priority 2011, dated 2023)
Where two headings read alike, the source gives them in different places. Non-standard residues stand in square brackets, D forms with d. Residues, ends and D or L forms follow the SMILES beside them. *: point of attachment. Tle = CC(C)(C)[C@H](N)C(=O)O; X1 = NCCNCC(CNCCN)C(=O)*; Dab = NCC[C@H](N)C(=O)O; βAla = NCCC(=O)O

Legend:
[1] = molecular target: NEP (Homo sapiens, UniProt P08473); conditions: reversible competitive inhibitor; cited from earlier work
[2] = human; cited from earlier work
[3] = mouse; cited from earlier work
[4] = system: WiDr tumors (hNTS1+); assay: Biodistribution / tumor uptake in SCID mice bearing WiDr tumors (hNTS1+); conditions: SCID, mouse, in vivo, 4 h
Protocol: FIG. 4H: Biodistribution of [^99mTc]Demotensin 6 in SCID mice bearing WiDr tumors (hNTS1^+) at 4 h pi. Bars represent average uptake as mean % injected dose per gram (% ID/g) of at least 4 animals with standard deviation (control at 4 h 2nd bars); three additional groups of animals received either excess NT(1-13) and PA (100 μg blocker and 300 μg PA—first bars), or PA (300 μg PA—3rd bars) or PA and Lis (300 μg PA+250 μg Lis—4th bars). Bl=blood, Li=liver, He=heart, Ki=kidneys, St=stomach, In=intestines, Sp=spleen, Mu=muscle, Lu=lungs, Pa=pancreas, Fe=femur and Tu=WiDr tumor.
FIG. 5H: Biodistribution of [^99mTc]Demotensin 1 in SCID mice bearing WiDr tumors (hNTS1+) at 4 h pi. Bars represent average uptake as mean % injected dose per gram (% ID/g) of at least 4 animals with standard deviation (control at 4 h 2nd bars); three additional groups of animals received either excess NT and PA (100 μg and 300 μg PA, respectively—first bars), or PA (300 μg PA—3rd bars) or PA and Lis (300 μg PA+300 μg Lis—4th bars). Bl=blood, Li=liver, He=heart, Ki=kidneys, St=stomach, In=intestines, Sp=spleen, Mu=muscle, Lu=lungs, Pa=pancreas, Fe=femur and Tu=WiDr tumor.
In FIG. 4B the effects of such regimens on SCID mice bearing the human colon adenocarcinoma WiDr tumor (a hNTS1R^+ tumor) on enhancing in vivo tumor targeting are presented.
In FIG. 5B the effects of above regimens on SCID mice bearing WiDr tumors (hNTS1R^+) on enhancing in vivo tumor targeting are shown.

[5] = parameters: species or system Swiss albino mice; conditions: mouse, in vivo, 5 min
Protocol: Whole blood was collected 5 min postinjection (pi), blood cells were removed and major proteins were precipitated and then the supernatant was analyzed by RP-HPLC coupled to a gamma detector.
Alternatively, the dual NEP and ACE inhibitor racecadotril (race; 2.5 mg) was ip injected 45-60 min prior to radioligand injection and the same procedure was followed as described above.
To test the in vivo stability, ^111In-DOTA-MG11 was injected in the tail vein of Swiss albino mice and 5 min afterwards blood was collected, blood cells were removed and major proteins were precipitated and then the supernatant was analyzed by RP-HPLC coupled to a gamma detector. As shown in the radiochromatogram of FIG. 3A, the major part of ^111In-DOTA-MG11 was consumed during this period (<5% intact peptide still detected), in agreement with previous reports. Further, ^111In-DOTA-MG11 was co-injected together with PA or injected 1 h after ip injection of race (2.5 mg) in more mice and the same protocol was followed as above. Amazingly, the percentage of ^111In-DOTA-MG11 found intact in the blood of the PA-treated mice was raised from <5% to 75% and in the race-pretreated mice to 73%.
For ex vivo blood analysis, [^99mTc]Demotensin 6 was injected in the tail vein of Swiss albino mice and blood collected 5 min thereafter was analyzed as previously described. The effect of PA on stability was studied by co-injection of PA along with [^99mTc]Demotensin 6. Furthermore, a PA dose study was performed with the PA injected dose ranging from 300 μg down to 0.03 μg and results are summarized in FIG. 4A.
Additional groups of radiopeptides with relevance for nuclear medicine applications have been studied for their in vivo stability. Radiopeptides were injected in the tail vein of healthy mice, either alone, or with a NEP inhibitor (PA—300 μg), or with a NEP (PA—300 μg) and an ACE (Lis—300 μg) inhibitor mixture; alternatively, another NEP inhibitor prodrug (race—2.5 mg) was ip injected in the animals ˜45 min prior to radioligand injection. Blood was collected 5 min afterwards, and analyzed by RP-HPLC after suitable preparation, as previously described.

Sequence of NEP (P08473 whole entry): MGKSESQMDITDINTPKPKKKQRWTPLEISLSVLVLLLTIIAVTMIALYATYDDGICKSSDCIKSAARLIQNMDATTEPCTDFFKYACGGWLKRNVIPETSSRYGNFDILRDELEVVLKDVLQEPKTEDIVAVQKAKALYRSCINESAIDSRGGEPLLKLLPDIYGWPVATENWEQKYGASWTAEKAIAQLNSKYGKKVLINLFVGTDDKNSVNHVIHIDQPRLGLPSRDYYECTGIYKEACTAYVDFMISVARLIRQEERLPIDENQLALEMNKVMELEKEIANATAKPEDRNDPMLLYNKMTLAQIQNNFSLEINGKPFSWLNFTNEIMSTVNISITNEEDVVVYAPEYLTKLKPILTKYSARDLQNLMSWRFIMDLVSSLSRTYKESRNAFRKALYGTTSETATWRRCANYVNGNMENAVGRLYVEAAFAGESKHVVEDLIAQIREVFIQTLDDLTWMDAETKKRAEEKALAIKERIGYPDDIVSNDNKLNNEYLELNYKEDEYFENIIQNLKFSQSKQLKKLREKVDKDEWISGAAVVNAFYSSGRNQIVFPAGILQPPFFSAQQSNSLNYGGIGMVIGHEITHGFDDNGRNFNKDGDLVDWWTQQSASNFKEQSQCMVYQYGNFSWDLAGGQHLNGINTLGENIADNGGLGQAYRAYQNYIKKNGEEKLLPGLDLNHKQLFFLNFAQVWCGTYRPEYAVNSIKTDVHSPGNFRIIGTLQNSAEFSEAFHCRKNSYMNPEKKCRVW

Structure (SMILES): CC(C)C[C@H](NP(=O)(O)O[C@@H]1O[C@@H](C)[C@H](O)[C@@H](O)[C@H]1O)C(=O)N[C@@H](Cc1c[nH]c2ccccc12)C(=O)O [Phosphoramidon, phosphoramidon]
- IC50 [1]: 34 nM

Structure (SMILES): CC(C)C[C@H](NC(=O)[C@@H](NC(=O)[C@H](Cc1ccc(O)cc1)NC(=O)[C@@H]1CCCN1C(=O)[C@H](CCN)NC(=O)[C@H](CCCNC(=N)N)NC(=O)CCNC(=O)C(CNCCN)CNCCN)C(C)(C)C)C(=O)O [[^99mTc]Demotensin 6, ^99mTc-N4-βAla-Arg-Dab-Pro-Tyr-Tle-Leu-OH, metal not drawn] ({X1-βAla}-R[Dab]PY[Tle]L-OH)
- in vitro stability in plasma [2]: stable
- in vitro stability in plasma [3]: stable
- uptake in WiDr tumor [4]: 1.61±0.42 % ID/g
- percentage of parent peptide remaining intact [5]: 52%
